T1: AP2-G D1 (Plasmodium falciparum, UniProt Q8I5I9 2123-2245)
T1 sequence: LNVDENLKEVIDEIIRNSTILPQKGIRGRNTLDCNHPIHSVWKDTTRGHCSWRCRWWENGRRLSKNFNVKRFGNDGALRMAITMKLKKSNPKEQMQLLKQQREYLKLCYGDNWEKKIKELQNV

B1: XGTACX_site4032 (dsDNA)
DNA 1: TTCATTTTTTATTATAGTACACATAATATTTGCAGA
DNA 2: TCTGCAAATATTATGTGTACTATAATAAAAAATGAA
B2: XGTACX_site366 (dsDNA)
DNA 1: TAATATTTCATTAGGTGTACACTACATAGTAGTAGA
DNA 2: TCTACTACTATGTAGTGTACACCTAATGAAATATTA
B3: XGTACX_site7234 (dsDNA)
DNA 1: ATTTCCTTTTTCTGTTGTACTCATAAAATAATATGT
DNA 2: ACATATTATTTTATGAGTACAACAGAAAAAGGAAAT
B4: XGTACX_site8545 (dsDNA)
DNA 1: TTACACATGTTTAACTGTACACATAATAGCAATATT
DNA 2: AATATTGCTATTATGTGTACAGTTAAACATGTGTAA
B5: XGTACX_site3287 (dsDNA)
DNA 1: TTTTACAATATTTTGTGTACTTATATTATGAGCTTA
DNA 2: TAAGCTCATAATATAAGTACACAAAATATTGTAAAA
B6: XGTACX_site17 (dsDNA)
DNA 1: TTTTACAAATATTACTGTACACATTTTCATATAATT
DNA 2: AATTATATGAAAATGTGTACAGTAATATTTGTAAAA
B7: XGTACX_site8830 (dsDNA)
DNA 1: AAATGCTAAAAATAGAGTACAGATAACGAAAAGTGT
DNA 2: ACACTTTTCGTTATCTGTACTCTATTTTTAGCATTT
B8: XGTACX_site7594 (dsDNA)
DNA 1: AGACGTAATAATTGTTGTACATAAAAAAATAAGAAA
DNA 2: TTTCTTATTTTTTTATGTACAACAATTATTACGTCT
B9: XGTACX_site5322 (dsDNA)
DNA 1: TATATATATATATGTAGTACTTTACAAAATAATTCG
DNA 2: CGAATTATTTTGTAAAGTACTACATATATATATATA
B10: XGTACX_site1598 (dsDNA)
DNA 1: CTAATAAAAAAAAAAAGTACATATGACAATATAAAG
DNA 2: CTTTATATTGTCATATGTACTTTTTTTTTTTATTAG
B11: XGTACX_site5884 (dsDNA)
DNA 1: TCAAGTATTAAAATGGGTACATAAATATGTGTATAT
DNA 2: ATATACACATATTTATGTACCCATTTTAATACTTGA
B12: XGTACX_site5109 (dsDNA)
DNA 1: TTTTTTTTTTTTTTTGGTACACATTTTGGTTAATGG
DNA 2: CCATTAACCAAAATGTGTACCAAAAAAAAAAAAAAA
B13: XGTACX_site1387 (dsDNA)
DNA 1: AAAAAAAATTATATATGTACTTATTAATCCTTTTAT
DNA 2: ATAAAAGGATTAATAAGTACATATATAATTTTTTTT
B14: XGTACX_site3663 (dsDNA)
DNA 1: TTTTTTTCTTAAAGATGTACTTTTTTAAAATAATCT
DNA 2: AGATTATTTTAAAAAAGTACATCTTTAAGAAAAAAA
B15: XGTACX_site1944 (dsDNA)
DNA 1: TTCAAAAATATATAATGTACACAAATATAAAAGAAT
DNA 2: ATTCTTTTATATTTGTGTACATTATATATTTTTGAA
B16: XGTACX_site3785 (dsDNA)
DNA 1: ATATACATATGTGTGTGTACTTATATCACATTTTTG
DNA 2: CAAAAATGTGATATAAGTACACACACATATGTATAT
B17: XGTACX_site1814 (dsDNA)
DNA 1: TTAAGAATATTTTCATGTACTCATTTTTTTTGTTAT
DNA 2: ATAACAAAAAAAATGAGTACATGAAAATATTCTTAA
B18: XGTACX_site4165 (dsDNA)
DNA 1: TTGTTTTTTTTTGGCTGTACGTTCATAAATTTTTTT
DNA 2: AAAAAAATTTATGAACGTACAGCCAAAAAAAAACAA
B19: XGTACX_site3520 (dsDNA)
DNA 1: ATATATATATATATATGTACTTATTTATCGTATTAT
DNA 2: ATAATACGATAAATAAGTACATATATATATATATAT
B20: XGTACX_site8237 (dsDNA)
DNA 1: TATAAAAATTAATATTGTACGTTTTATGAAAATAAA
DNA 2: TTTATTTTCATAAAACGTACAATATTAATTTTTATA
B21: XGTACX_site1288 (dsDNA)
DNA 1: TAAAGAGTCATGTGGTGTACCTGCTTCACCACATAT
DNA 2: ATATGTGGTGAAGCAGGTACACCACATGACTCTTTA
B22: XGTACX_site1573 (dsDNA)
DNA 1: TCCATTGTCACCTTTTGTACTTAAATTTTTTCCTCC
DNA 2: GGAGGAAAAAATTTAAGTACAAAAGGTGACAATGGA
B23: XGTACX_site8319 (dsDNA)
DNA 1: AAAAAAATATTAATGTGTACATAATAATAACATATA
DNA 2: TATATGTTATTATTATGTACACATTAATATTTTTTT
B24: XGTACX_site8893 (dsDNA)
DNA 1: ATATATATATATATATGTACATATATATTGTTGATC
DNA 2: GATCAACAATATATATGTACATATATATATATATAT
B25: XGTACX_site3365 (dsDNA)
DNA 1: TATATGGGATATATGTGTACATATAAAATATGTATC
DNA 2: GATACATATTTTATATGTACACATATATCCCATATA
B26: XGTACX_site2113 (dsDNA)
DNA 1: AAGATAAAATAATAAAGTACACATATAAATTGAAAA
DNA 2: TTTTCAATTTATATGTGTACTTTATTATTTTATCTT
B27: XGTACX_site7939 (dsDNA)
DNA 1: GGATTTTTCGAATCATGTACATATTTAATTAAAAAA
DNA 2: TTTTTTAATTAAATATGTACATGATTCGAAAAATCC
B28: XGTACX_site977 (dsDNA)
DNA 1: TTCAAATTGTTTATATGTACTTATAAAAATTGTCTG
DNA 2: CAGACAATTTTTATAAGTACATATAAACAATTTGAA
B29: XGTACX_site6588 (dsDNA)
DNA 1: AAAAATTGAATGATGTGTACTTAAAAGAATATAGAA
DNA 2: TTCTATATTCTTTTAAGTACACATCATTCAATTTTT
B30: XGTACX_site894 (dsDNA)
DNA 1: AATAATGTTATAAATTGTACGTGTATTATTCATTAC
DNA 2: GTAATGAATAATACACGTACAATTTATAACATTATT
B31: XGTACX_site2864 (dsDNA)
DNA 1: CCTATATAATTATAATGTACTTGTAAAAAATATAAC
DNA 2: GTTATATTTTTTACAAGTACATTATAATTATATAGG
B32: XGTACX_site8481 (dsDNA)
DNA 1: TCAATTTTTTAATGTTGTACTTTGTAAAAAAAAATA
DNA 2: TATTTTTTTTTACAAAGTACAACATTAAAAAATTGA
B33: XGTACX_site1392 (dsDNA)
DNA 1: ATATGTAAAATATGGGGTACGAAGGTAGGTAGGTAA
DNA 2: TTACCTACCTACCTTCGTACCCCATATTTTACATAT
B34: XGTACX_site6785 (dsDNA)
DNA 1: ATATATGGAAAGAGTAGTACTATTATAGGGGTGTTA
DNA 2: TAACACCCCTATAATAGTACTACTCTTTCCATATAT
B35: XGTACX_site2117 (dsDNA)
DNA 1: TATAATATATGTATATGTACTTATGTTGAGAAACAT
DNA 2: ATGTTTCTCAACATAAGTACATATACATATATTATA
B36: XGTACX_site4379 (dsDNA)
DNA 1: AATTAAATAAATGTATGTACATAATAAATATGTATT
DNA 2: AATACATATTTATTATGTACATACATTTATTTAATT
B37: XGTACX_site8080 (dsDNA)
DNA 1: AAGCTTAAAAATGGGGGTACGTCATAGGGATTCAAC
DNA 2: GTTGAATCCCTATGACGTACCCCCATTTTTAAGCTT
B38: XGTACX_site7911 (dsDNA)
DNA 1: TAGCATGATTTGCCTTGTACACAACCGTTTTAATAA
DNA 2: TTATTAAAACGGTTGTGTACAAGGCAAATCATGCTA
B39: XGTACX_site4551 (dsDNA)
DNA 1: ATATATATATATATTTGTACTTACATTTTTATTTAT
DNA 2: ATAAATAAAAATGTAAGTACAAATATATATATATAT
B40: XGTACX_site8448 (dsDNA)
DNA 1: AGGTTTCATTTAGCATGTACATATTATAAAAATTGT
DNA 2: ACAATTTTTATAATATGTACATGCTAAATGAAACCT
B41: XGTACX_site8514 (dsDNA)
DNA 1: AGTATTATATATATATGTACATAATATACATATATA
DNA 2: TATATATGTATATTATGTACATATATATATAATACT
B42: XGTACX_site8539 (dsDNA)
DNA 1: AAATAAAGTAAAATATGTACATAAATTAAAACACAT
DNA 2: ATGTGTTTTAATTTATGTACATATTTTACTTTATTT
B43: XGTACX_site2966 (dsDNA)
DNA 1: AAACATATAAATCACGGTACACATTATTGAAAGTGT
DNA 2: ACACTTTCAATAATGTGTACCGTGATTTATATGTTT

Molecular target: T1, AP2-G D1
Test: gcPBM; about 25 ug protein; PBS, 1% milk, 0.2 mg/ml BSA, salmon testes DNA, 0.03% Triton X-100
Details: tags: N-terminal GST (pGEX-4T-1), kept; label: surface-attached array probe

Binder | binding signal
B1 | 12.3 ln median PBM intensity, better of two orientations
B2 | 12.2 ln median PBM intensity, better of two orientations
B3 | 12.2 ln median PBM intensity, better of two orientations
B4 | 12.2 ln median PBM intensity, better of two orientations
B5 | 12.2 ln median PBM intensity, better of two orientations
B6 | 12.2 ln median PBM intensity, better of two orientations
B7 | 12.1 ln median PBM intensity, better of two orientations
B8 | 12.1 ln median PBM intensity, better of two orientations
B9 | 12.1 ln median PBM intensity, better of two orientations
B10 | 12.1 ln median PBM intensity, better of two orientations
B11 | 12.1 ln median PBM intensity, better of two orientations
B12 | 12 ln median PBM intensity, better of two orientations
B13 | 12 ln median PBM intensity, better of two orientations
B14 | 12 ln median PBM intensity, better of two orientations
B15 | 12 ln median PBM intensity, better of two orientations
B16 | 12 ln median PBM intensity, better of two orientations
B17 | 12 ln median PBM intensity, better of two orientations
B18 | 11.9 ln median PBM intensity, better of two orientations
B19 | 11.9 ln median PBM intensity, better of two orientations
B20 | 11.9 ln median PBM intensity, better of two orientations
B21 | 11.9 ln median PBM intensity, better of two orientations
B22 | 11.9 ln median PBM intensity, better of two orientations

Binder | binding signal
B23 | 11.9 ln median PBM intensity, better of two orientations
B24 | 11.8 ln median PBM intensity, better of two orientations
B25 | 11.8 ln median PBM intensity, better of two orientations
B26 | 11.8 ln median PBM intensity, better of two orientations
B27 | 11.8 ln median PBM intensity, better of two orientations
B28 | 11.8 ln median PBM intensity, better of two orientations
B29 | 11.8 ln median PBM intensity, better of two orientations
B30 | 11.8 ln median PBM intensity, better of two orientations
B31 | 11.8 ln median PBM intensity, better of two orientations
B32 | 11.7 ln median PBM intensity, better of two orientations
B33 | 11.7 ln median PBM intensity, better of two orientations
B34 | 11.7 ln median PBM intensity, better of two orientations
B35 | 11.7 ln median PBM intensity, better of two orientations
B36 | 11.7 ln median PBM intensity, better of two orientations
B37 | 11.7 ln median PBM intensity, better of two orientations
B38 | 11.7 ln median PBM intensity, better of two orientations
B39 | 11.6 ln median PBM intensity, better of two orientations
B40 | 11.6 ln median PBM intensity, better of two orientations
B41 | 11.6 ln median PBM intensity, better of two orientations
B42 | 11.6 ln median PBM intensity, better of two orientations
B43 | 11.6 ln median PBM intensity, better of two orientations

Reference: PMC11417369, “DNA sequence and chromatin differentiate sequence-specific transcription factor binding in the human malaria parasite Plasmodium falciparum”
